For one molecule, IC50 results are on record in publication PMC8782417, “A PDK-1 allosteric agonist neutralizes insulin signaling derangements and beta-amyloid toxicity in neuronal cells and in vitro” (PLoS ONE, 2022).

The test deals with T1, FAM-labeled Aβ42 peptide (carboxy-fluorescein conjugated to the N' terminus), prepared as ADDL oligomers (UniProt P05067 672-713, carboxy-fluorescein (FAM) on the N-terminus; the labelled peptide was mixed with wild type Aβ42 in a 1:2 molar ratio).
T1 construct: Aβ42, the 42-residue β-amyloid peptide cut from the amyloid precursor protein (APP); Mixed with unlabelled wild type Aβ42 (1:2 molar ratio), then incubated at 4 °C for 24 hrs to oligomerise (ADDLs); also called FAM-Aβ42; FAM tagged-Aβ; source: bought: Anaspec (FAM-Aβ42); Aβ peptides from BioSource
T1 sequence (P05067 672-713): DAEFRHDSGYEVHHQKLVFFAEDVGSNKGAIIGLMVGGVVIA
Briefly: fluorescence polarisation; in solution; FAM-Aβ42 probe (ADDL oligomers) fixed at 200 nM, recombinant PDK-1 or Akt-1 titrated 0-10 μM (Akt 0 to 12.5 μM) until saturation; 30 min, 25°C; 100 mM NaCl, 20 mM phosphate pH7.4, 2 mM DTT, 0.1% BSA, 2% DMSO; 2 experiments each. To be noted: both partners purified.

B1: Recombinant human PDK-1 (active) (enzyme, UniProt O15530 1-556, looked up)
chain: MARTTSQLYDAVPIQSSVVLCSCPSPSMVRTQTESSTPPGIPGGSRQGPAMDGTAAEPRPGAGSLQHAQPPPQPRKKRPEDFKFGKILGEGSFSTVVLARELATSREYAIKILEKRHIIKENKVPYVTRERDVMSRLDHPFFVKLYFTFQDDEKLYFGLSYAKNGELLKYIRKIGSFDETCTRFYTAEIVSALEYLHGKGIIHRDLKPENILLNEDMHIQITDFGTAKVLSPESKQARANSFVGTAQYVSPELLTEKSACKSSDLWALGCIIYQLVAGLPPFRAGNEYLIFQKIIKLEYDFPEKFFPKARDLVEKLLVLDATKRLGCEEMEGYGPLKAHPFFESVTWENLHQQTPPKLTAYLPAMSEDDEDCYGNYDNLLSQFGCMQVSSSSSSHSLSASDTGLPQRSGSNIEQYIHDLDSNSFELDLQFSEDEKRLLLEKQAGGNPWHQFVENNLILKMGPVDKRKGLFARRRQLLLTEGPHLYYVDPVNKVLKGEIPWSQELRPEAKNFKTFFVHTPNRTYYLMDPSGNAHKWCRKIQEVWRQRYQSHPDAAVQ
notes: phosphoinositide-dependent protein kinase-1 (PDK-1), human, recombinant, active; printed size 59 kDa; Commercial protein; also called phosphoinositide-dependent protein kinase-1; source: bought: Amsbio
Take B1: the IC50 was around 1000 nM.
